Where no end group is shown, it is not given here. [ ]: non-standard residue; d: D form. The star is where a group is joined. maleimido‑mono‑amide‑DOTA = O=C(O)CN1CCN(CC(=O)O)CCN(CC(=O)NCCN2C(=O)CC(*)C2=O)CCN(CC(=O)O)CC1

Here are results for 2 molecules from patent US20200405889A1.

Test [1] addresses mouse chemokine (C-C motif) receptor 2 (CCR2) (mouse) (UniProt P51683). Put plainly: cell-based or functional assay.
The target in test [2] is human CCR2 (hCCR2) (human) (UniProt P41597). The test can be described thus: autoradiography of ^64Cu-DOTA-ECL1i on human COPD lung tissue sections, co-incubation with 500-fold non-radioactive ECL1i.
Chain of human CCR2 (hCCR2) (human) (P41597 whole entry): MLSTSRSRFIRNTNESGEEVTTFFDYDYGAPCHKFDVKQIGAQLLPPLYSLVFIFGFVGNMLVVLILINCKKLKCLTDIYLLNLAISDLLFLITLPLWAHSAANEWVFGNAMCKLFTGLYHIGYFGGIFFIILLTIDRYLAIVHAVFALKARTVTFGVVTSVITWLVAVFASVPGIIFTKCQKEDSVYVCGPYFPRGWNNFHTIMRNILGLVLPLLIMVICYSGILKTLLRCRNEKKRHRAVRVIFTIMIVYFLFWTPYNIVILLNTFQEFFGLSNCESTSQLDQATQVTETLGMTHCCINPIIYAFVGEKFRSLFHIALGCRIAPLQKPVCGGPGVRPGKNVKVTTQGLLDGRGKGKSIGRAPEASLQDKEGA

Chain of mouse chemokine (C-C motif) receptor 2 (CCR2) (mouse) (P51683 whole entry): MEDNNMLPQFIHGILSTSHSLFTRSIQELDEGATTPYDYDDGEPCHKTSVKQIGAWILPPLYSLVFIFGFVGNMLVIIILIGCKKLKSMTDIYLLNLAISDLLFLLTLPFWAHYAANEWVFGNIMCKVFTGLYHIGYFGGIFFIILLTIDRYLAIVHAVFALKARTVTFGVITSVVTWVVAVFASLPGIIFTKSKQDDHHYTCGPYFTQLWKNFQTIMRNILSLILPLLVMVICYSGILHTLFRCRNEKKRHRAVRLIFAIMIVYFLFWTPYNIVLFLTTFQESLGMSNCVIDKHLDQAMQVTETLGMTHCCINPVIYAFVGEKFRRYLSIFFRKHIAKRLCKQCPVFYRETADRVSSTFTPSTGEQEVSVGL

For [dL]G[dT][dF][dL][dK][dC](maleimido‑mono‑amide‑DOTA) (also: DOTA chelates 64Cu) [^64Cu-DOTA-ECL1i], in test [1], the graft/native lung uptake ratio, PET 1 hour after transplantation, wild type B6 lung into wild type B6 recipient was 3.71; the graft/native lung uptake ratio, PET at 1 hour with co-injected non-radiolabeled ECL1i is 1.17; the graft/native lung uptake ratio, PET at 4 hours, wild type into wild type stood at 4.13; the graft/native lung uptake ratio, PET at 24 hours, wild type into wild type is 3.73. Also, in test [1], the lung PET uptake 24 h after intratracheal LPS worked out at 4.43 % ID/g, the lung PET uptake 24 h after intratracheal PBS was determined as 0.99 % ID/g, the lung PET uptake 48 h post-LPS came out at 1.04 % ID/g and the lung PET uptake 144 h post-LPS was found to be 1.29 % ID/g. In test [1], the lung PET uptake after low dose LPS turned out to be 1.82 % ID/g; the lung PET uptake in LPS-treated mice co-injected with excess non-radioactive ECL1i (blocked) is 0.63 % ID/g; the lung PET uptake in naive mice was determined as 0.39 % ID/g; the percent of PET signal in grafts blocked by competitive receptor blocking, wild type recipients came out at 75%.

Turning to [dL]G[dT][dF][dL][dK][dC] [ECL1i peptide d(LGTFLKC)], the percent of autoradiography signal blocked in test [2] turned out to be 54.5%.
